Reference: patent US20250304643A1 (BAINAN BIOTECH, published 2025)
*1 amine or outer side, *2 acyl side, *3 side chain or, on linkers, in order; H or OH if unused. Where no end group is shown, it is not given here. Side-chain parts run from the residue outwards. [ ]: non-standard residue; d: D form. The star is where a group is joined. γGlu = O=C(O)[C@H](CCC(=O)[*:2])N[*:1]; Palmitoyl = CCCCCCCCCCCCCCCC(=O)*; Decanoyl = CCCCCCCCCC(=O)*; Aib = CC(C)(N)C(=O)O

Tests used:
[1] = target: T1, human glucose-dependent insulinotropic polypeptide receptor (human, UniProt P48546 22-466); assay: cell-based or functional assay
T1 sequence (looked up): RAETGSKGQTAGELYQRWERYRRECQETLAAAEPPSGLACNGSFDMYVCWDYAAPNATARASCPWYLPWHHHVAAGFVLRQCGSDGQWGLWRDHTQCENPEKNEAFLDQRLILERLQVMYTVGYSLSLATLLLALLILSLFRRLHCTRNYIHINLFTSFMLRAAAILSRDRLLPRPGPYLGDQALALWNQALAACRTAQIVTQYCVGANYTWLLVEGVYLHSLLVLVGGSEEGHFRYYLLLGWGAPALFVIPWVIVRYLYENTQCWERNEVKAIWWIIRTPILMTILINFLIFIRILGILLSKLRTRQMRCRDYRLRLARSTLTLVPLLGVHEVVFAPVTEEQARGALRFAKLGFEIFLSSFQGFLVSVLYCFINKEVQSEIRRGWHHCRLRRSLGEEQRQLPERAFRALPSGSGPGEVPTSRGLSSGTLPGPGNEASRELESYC

[2] = target: T2, human glucagon-like peptide-2 receptor (human, UniProt O95838 1-553); assay: cell-based or functional assay
T2 sequence (looked up): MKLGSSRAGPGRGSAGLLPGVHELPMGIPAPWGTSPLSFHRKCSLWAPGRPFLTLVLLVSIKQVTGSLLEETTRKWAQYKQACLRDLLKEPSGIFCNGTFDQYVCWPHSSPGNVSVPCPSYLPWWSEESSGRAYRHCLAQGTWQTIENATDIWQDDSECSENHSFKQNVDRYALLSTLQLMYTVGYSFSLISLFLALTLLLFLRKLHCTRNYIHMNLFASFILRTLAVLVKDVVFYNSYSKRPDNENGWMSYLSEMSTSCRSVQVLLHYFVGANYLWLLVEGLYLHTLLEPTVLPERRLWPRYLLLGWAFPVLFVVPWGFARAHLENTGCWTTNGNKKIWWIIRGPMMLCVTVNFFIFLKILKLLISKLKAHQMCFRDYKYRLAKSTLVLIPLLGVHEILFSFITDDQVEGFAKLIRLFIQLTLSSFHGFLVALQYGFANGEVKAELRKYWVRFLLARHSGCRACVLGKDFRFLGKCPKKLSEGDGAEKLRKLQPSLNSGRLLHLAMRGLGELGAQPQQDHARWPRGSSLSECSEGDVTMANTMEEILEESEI

Binder	Efficacy GIPR [1]	EC50 (nM) GLP-2R [2]	Efficacy GLP-2R [2]	logEC50 GLP-2R [2]
H[Aib]DGTFISDYK([γGlu-Palmitoyl])TILDNLAARDFINWLIETKITK-OH (N-terminus assumed; SMILES CCCCCCCCCCCCCCCC(=O)N[C@@H](CCC(=O)NCCCC[C@H](NC(=O)[C@H](Cc1ccc(O)cc1)NC(=O)[C@H](CC(=O)O)NC(=O)[C@H](CO)NC(=O)[C@@H](NC(=O)[C@H](Cc1ccccc1)NC(=O)[C@@H](NC(=O)CNC(=O)[C@H](CC(=O)O)NC(=O)C(C)(C)NC(=O)[C@@H](N)Cc1c[nH]cn1)[C@@H](C)O)[C@@H](C)CC)C(=O)N[C@H](C(=O)N[C@H](C(=O)N[C@@H](CC(C)C)C(=O)N[C@@H](CC(=O)O)C(=O)N[C@@H](CC(N)=O)C(=O)N[C@@H](CC(C)C)C(=O)N[C@@H](C)C(=O)N[C@@H](C)C(=O)N[C@@H](CCCNC(=N)N)C(=O)N[C@@H](CC(=O)O)C(=O)N[C@@H](Cc1ccccc1)C(=O)N[C@H](C(=O)N[C@@H](CC(N)=O)C(=O)N[C@@H](Cc1c[nH]c2ccccc12)C(=O)N[C@@H](CC(C)C)C(=O)N[C@H](C(=O)N[C@@H](CCC(=O)O)C(=O)N[C@H](C(=O)N[C@@H](CCCCN)C(=O)N[C@H](C(=O)N[C@H](C(=O)N[C@@H](CCCCN)C(=O)O)[C@@H](C)O)[C@@H](C)CC)[C@@H](C)O)[C@@H](C)CC)[C@@H](C)CC)[C@@H](C)CC)[C@@H](C)O)C(=O)O) [Compound no. 32]	89%	10 nM	84%	8
H[Aib]DGTFISDYK([γGlu-Decanoyl])TILDKLAARDFIEWLIATKITK-OH (N-terminus assumed; SMILES CCCCCCCCCC(=O)N[C@@H](CCC(=O)NCCCC[C@H](NC(=O)[C@H](Cc1ccc(O)cc1)NC(=O)[C@H](CC(=O)O)NC(=O)[C@H](CO)NC(=O)[C@@H](NC(=O)[C@H](Cc1ccccc1)NC(=O)[C@@H](NC(=O)CNC(=O)[C@H](CC(=O)O)NC(=O)C(C)(C)NC(=O)[C@@H](N)Cc1c[nH]cn1)[C@@H](C)O)[C@@H](C)CC)C(=O)N[C@H](C(=O)N[C@H](C(=O)N[C@@H](CC(C)C)C(=O)N[C@@H](CC(=O)O)C(=O)N[C@@H](CCCCN)C(=O)N[C@@H](CC(C)C)C(=O)N[C@@H](C)C(=O)N[C@@H](C)C(=O)N[C@@H](CCCNC(=N)N)C(=O)N[C@@H](CC(=O)O)C(=O)N[C@@H](Cc1ccccc1)C(=O)N[C@H](C(=O)N[C@@H](CCC(=O)O)C(=O)N[C@@H](Cc1c[nH]c2ccccc12)C(=O)N[C@@H](CC(C)C)C(=O)N[C@H](C(=O)N[C@@H](C)C(=O)N[C@H](C(=O)N[C@@H](CCCCN)C(=O)N[C@H](C(=O)N[C@H](C(=O)N[C@@H](CCCCN)C(=O)O)[C@@H](C)O)[C@@H](C)CC)[C@@H](C)O)[C@@H](C)CC)[C@@H](C)CC)[C@@H](C)CC)[C@@H](C)O)C(=O)O) [Compound no. 31]	89%	–	90%	–
